{"source": "patent US7558625B2", "about": "“Combined micro-channel generation and iontophoresis for transdermal delivery of pharmaceutical agents” (TransPharma Medical Ltd., priority 2004, dated 2009)", "key": {"[1]": {"test": "Transdermal delivery of hGH by ViaDerm and iontophoresis in anesthetized rats, serum hGH (Elisa)", "type": "in vivo", "conditions": "for Serum hGH levels: ViaDerm, Avg.; for AUC: serum hGH, 1.5 mg hGH patch", "description": "Two groups of rats were tested. […] One group was connected to a power supply (constructed in house) and the other was not. The hGH loaded patch was connected to the negative pole of the power supply.\nRats (males, 300-325 gr, Sprague Dawley) were kept under anesthesia throughout the experiment. The following experimental groups were investigated: • Group 1—Passive delivery: 3 rats were treated with ViaDerm on two adjacent sites (total area 2.8 cm^2) over which the iontophoresis patch was placed. The reference electrode assembly was placed on a shaved intact skin on the back of the anal. The power supply was not turned on. • Group 2—Iontophoresis delivery: 3 rats were treated with ViaDerm on two adjacent sites (total area 2.8 cm^2) over which the iontophoresis patch was placed. The reference electrode assembly was placed on a shaved intact skin on the back of the animal. The power supply was turned on.\nViaDenm operating parameters: Burst length—700 μsec; Voltage—330V; Number of bursts—2; Two applications on the same skin area (150 pores/cm^2); Without current limitation; 80 μm diameter electrode arrays; Current density used: 0.18 mA/cm^2.\nTo detect hGH levels in serum—Elisa kit (DSL Inc. Webster, Tex., USA) was used."}, "[2]": {"test": "Transdermal delivery of hGH by ViaDerm and iontophoresis in rats, high/low hGH dose vs SC", "type": "in vivo", "parameters": "hGH plasma levels: unit not given here", "conditions": "for hGH plasma levels: Avg.", "description": "In the present experiment a power supply (parallel connection instead of serial) was used in order to improve the power supply.\nHuman GH solution was prepared from a 12 mg Genotropin vial (Genotropin®, Pharmacia and Upjohn). The levels of hGH in serum were analyzed using Elisa kit (DSL Inc. Webster Tex., USA). HPLC was used to quantitate SC solution.\nViaDerm operating parameters: Burst length—700 μsec; Voltage—330V; Number of bursts—2; 2 applications on the same skin area (150 micro-channels/cm^2); Two application sites (total area 2.8 cm^2); Without current limitation; 80 μm diameter electrode of the electrode arrays.\nIontophoresis application parameters: Current density 0.64 mA/cm^2 (total 1.8 mA). Current elevation time (from 0-max) 20 seconds. Current application time 8 hours."}, "[3]": {"conditions": "ViaDerm + Iontophoresis off 15 mg"}, "[4]": {"conditions": "ViaDerm + Iontophoresis on 1.5 mg"}, "[5]": {"conditions": "ViaDerm + Iontophoresis on 15 mg"}}}
{"substance": "hGH: human growth hormone (Genotropin, Pharmacia and Upjohn)", "values": [{"measurement": "AUC of ViaDerm and iontophoresis versus ViaDerm only (passive delivery)", "setting": "[1]", "value": 3.5, "unit": "fold"}, {"measurement": "skin observation after removal of the iontophoretic patches", "setting": "[1]; 0.18 mA/cm^2, end of experiment", "value": "burn marks were seen at the contact area of the electrode"}, {"measurement": "duration of hGH delivery", "setting": "[1]; ViaDerm treated skin", "value": "more than 6 hours"}, {"measurement": "Serum hGH levels", "setting": "[1]; Passive Patch 1.5 mg hGH, 0 h", "value": 0.1, "unit": "ng/mL"}, {"measurement": "Serum hGH levels", "setting": "[1]; Passive Patch 1.5 mg hGH, 0.75 h", "value": 5.1, "unit": "ng/mL"}, {"measurement": "Serum hGH levels", "setting": "[1]; Passive Patch 1.5 mg hGH, 1.5 h", "value": 14.0, "unit": "ng/mL"}, {"measurement": "Serum hGH levels", "setting": "[1]; Passive Patch 1.5 mg hGH, 2.25 h", "value": 23.3, "unit": "ng/mL"}, {"measurement": "Serum hGH levels", "setting": "[1]; Passive Patch 1.5 mg hGH, 3 h", "value": 40.8, "unit": "ng/mL"}, {"measurement": "Serum hGH levels", "setting": "[1]; Passive Patch 1.5 mg hGH, 6 h", "value": 34.0, "unit": "ng/mL"}, {"measurement": "Serum hGH levels", "setting": "[1]; Patch 1.5 mg hGH + Iontophoresis, 0 h", "value": 0.1, "unit": "ng/mL"}, {"measurement": "Serum hGH levels", "setting": "[1]; Patch 1.5 mg hGH + Iontophoresis, 0.75 h", "value": 22.7, "unit": "ng/mL"}, {"measurement": "Serum hGH levels", "setting": "[1]; Patch 1.5 mg hGH + Iontophoresis, 1.5 h", "value": 61.1, "unit": "ng/mL"}, {"measurement": "Serum hGH levels", "setting": "[1]; Patch 1.5 mg hGH + Iontophoresis, 2.25 h", "value": 109.8, "unit": "ng/mL"}, {"measurement": "Serum hGH levels", "setting": "[1]; Patch 1.5 mg hGH + Iontophoresis, 3 h", "value": 128.9, "unit": "ng/mL"}, {"measurement": "Serum hGH levels", "setting": "[1]; Patch 1.5 mg hGH + Iontophoresis, 6 h", "value": 175.1, "unit": "ng/mL"}, {"measurement": "AUC", "setting": "[1]; ViaDerm and iontophoresis", "value": 637, "unit": "ng·h/mL"}, {"measurement": "AUC", "setting": "[1]; ViaDerm only (passive delivery)", "value": 182, "unit": "ng·h/mL"}, {"measurement": "hGH plasma levels", "setting": "[2]; 1.5 mg hGH, Iontoph. on, +VD, 0.0 hr", "value": 0.1}, {"measurement": "hGH plasma levels", "setting": "[2]; 1.5 mg hGH, Iontoph. on, +VD, 1.0 hr", "value": 225.1}, {"measurement": "hGH plasma levels", "setting": "[2]; 1.5 mg hGH, Iontoph. on, +VD, 2.0 hr", "value": 346.3}, {"measurement": "hGH plasma levels", "setting": "[2]; 1.5 mg hGH, Iontoph. on, +VD, 3.0 hr", "value": 617.3}, {"measurement": "hGH plasma levels", "setting": "[2]; 1.5 mg hGH, Iontoph. on, +VD, 4.0 hr", "value": 444.5}, {"measurement": "hGH plasma levels", "setting": "[2]; 1.5 mg hGH, Iontoph. on, +VD, 6.0 hr", "value": 184.3}, {"measurement": "hGH plasma levels", "setting": "[2]; 1.5 mg hGH, Iontoph. on, +VD, 8.0 hr", "value": 111.3}, {"measurement": "hGH plasma levels", "setting": "[2]; 15 mg hGH, Iontoph. off, +VD, 0.0 hr", "value": 0.1}, {"measurement": "hGH plasma levels", "setting": "[2]; 15 mg hGH, Iontoph. off, +VD, 1.0 hr", "value": 89.7}, {"measurement": "hGH plasma levels", "setting": "[2]; 15 mg hGH, Iontoph. off, +VD, 2.0 hr", "value": 178.7}, {"measurement": "hGH plasma levels", "setting": "[2]; 15 mg hGH, Iontoph. off, +VD, 3.0 hr", "value": 283.7}, {"measurement": "hGH plasma levels", "setting": "[2]; 15 mg hGH, Iontoph. off, +VD, 4.0 hr", "value": 389.4}, {"measurement": "hGH plasma levels", "setting": "[2]; 15 mg hGH, Iontoph. off, +VD, 6.0 hr", "value": 573.1}, {"measurement": "hGH plasma levels", "setting": "[2]; 15 mg hGH, Iontoph. off, +VD, 8.0 hr", "value": 873.4}, {"measurement": "hGH plasma levels", "setting": "[2]; 15 mg hGH, Iontoph. on, +VD, 0.0 hr", "value": 0.0}, {"measurement": "hGH plasma levels", "setting": "[2]; 15 mg hGH, Iontoph. on, +VD, 1.0 hr", "value": 504.8}, {"measurement": "hGH plasma levels", "setting": "[2]; 15 mg hGH, Iontoph. on, +VD, 2.0 hr", "value": 958.5}, {"measurement": "hGH plasma levels", "setting": "[2]; 15 mg hGH, Iontoph. on, +VD, 3.0 hr", "value": 2011.6}, {"measurement": "hGH plasma levels", "setting": "[2]; 15 mg hGH, Iontoph. on, +VD, 4.0 hr", "value": 2204.9}, {"measurement": "hGH plasma levels", "setting": "[2]; 15 mg hGH, Iontoph. on, +VD, 6.0 hr", "value": 1802.0}, {"measurement": "hGH plasma levels", "setting": "[2]; 15 mg hGH, Iontoph. on, +VD, 8.0 hr", "value": 1244.1}, {"measurement": "hGH plasma levels", "setting": "[2]; 15 mg hGH, Iontoph. on, intact, 0.0 hr", "value": 0.1}, {"measurement": "hGH plasma levels", "setting": "[2]; 15 mg hGH, Iontoph. on, intact, 1.0 hr", "value": 1.9}, {"measurement": "hGH plasma levels", "setting": "[2]; 15 mg hGH, Iontoph. on, intact, 2.0 hr", "value": 7.2}, {"measurement": "hGH plasma levels", "setting": "[2]; 15 mg hGH, Iontoph. on, intact, 3.0 hr", "value": 8.3}, {"measurement": "hGH plasma levels", "setting": "[2]; 15 mg hGH, Iontoph. on, intact, 4.0 hr", "value": 9.2}, {"measurement": "hGH plasma levels", "setting": "[2]; 15 mg hGH, Iontoph. on, intact, 6.0 hr", "value": 5.4}, {"measurement": "hGH plasma levels", "setting": "[2]; 15 mg hGH, Iontoph. on, intact, 8.0 hr", "value": 4.7}, {"measurement": "AUC", "setting": "[2]; Intact + Iontophoresis 15 mg", "value": 47, "unit": "ng·h/mL"}, {"measurement": "Bioavailability", "setting": "[2]; Intact + Iontophoresis 15 mg", "value": 0.05, "unit": "%"}, {"measurement": "hGH plasma levels", "setting": "[2]; S.C. 150 ug/0.2 ml hGH, 0.0 hr", "value": 0.1}, {"measurement": "hGH plasma levels", "setting": "[2]; S.C. 150 ug/0.2 ml hGH, 1.0 hr", "value": 153.0}, {"measurement": "hGH plasma levels", "setting": "[2]; S.C. 150 ug/0.2 ml hGH, 2.0 hr", "value": 156.8}, {"measurement": "hGH plasma levels", "setting": "[2]; S.C. 150 ug/0.2 ml hGH, 3.0 hr", "value": 127.8}, {"measurement": "hGH plasma levels", "setting": "[2]; S.C. 150 ug/0.2 ml hGH, 4.0 hr", "value": 120.1}, {"measurement": "hGH plasma levels", "setting": "[2]; S.C. 150 ug/0.2 ml hGH, 6.0 hr", "value": 75.3}, {"measurement": "hGH plasma levels", "setting": "[2]; S.C. 150 ug/0.2 ml hGH, 8.0 hr", "value": 43.4}, {"measurement": "AUC", "setting": "[2]; SC 150 ug", "value": 812, "unit": "ng·h/mL"}, {"measurement": "Bioavailability", "setting": "[2]; SC 150 ug (reference)", "value": 100, "unit": "%"}, {"measurement": "AUC", "setting": "[2]; [3]", "value": 3156, "unit": "ng·h/mL"}, {"measurement": "Bioavailability", "setting": "[2]; [3]", "value": 3.9, "unit": "%"}, {"measurement": "AUC", "setting": "[2]; [4]", "value": 2336, "unit": "ng·h/mL"}, {"measurement": "Bioavailability", "setting": "[2]; [4]", "value": 28.8, "unit": "%"}, {"measurement": "AUC", "setting": "[2]; [5]", "value": 11630, "unit": "ng·h/mL"}, {"measurement": "Bioavailability", "setting": "[2]; [5]", "value": 14.3, "unit": "%"}, {"measurement": "clinical observations at the site of the patch application", "setting": "[2]; abdomen, current on 0.64 mA/cm^2 for 8 hours", "value": "Black burning marks (3rd degree burns)"}, {"measurement": "clinical observations at the site of the patch application", "setting": "[2]; animals in which the power supply was off", "value": "No burn marks"}, {"measurement": "hGH delivery by iontophoresis alone", "setting": "[2]; intact skin, 15 mg hGH", "value": "does not cause hGH delivery"}]}
